test: soluble fraction after stress (log2 fold change); higher = more stays soluble; pooled small domains, quantitative proteomics; details: stress: 75 degC
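Further: 20 min heating vs room temperature control held 20 min.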

| Sequence | soluble fraction (log2) |
| --- | --- |
| HMQNSLKAFRVKRGLTTSALSRLTNGEFSTSRISNYETGVRALTIDAAKKLAPHLGASPAQLLNL | -0.694 |
| HMQNSPVFAASDIEDIRVGMTVEHQRFGQGRVMSIEGNGPNKKTTVLFEGIGEKQLLLQYAKLKIV | -0.664 |
| HMQNYLLFEEAKNIVNTLNLTNEKDWSEFIKKDFTYKNQIPIFPNQYYKHKGWVDWNDWLGINK | -1.35 |
| HMQNYTTIIGVIELRLNDISYDNVRKRYHIGRSGITLIMDRYRDSGLSLEDLKQMTPEKVVDLFYPR | -2.55 |
| HMQPAALEAQVIKLVRLHAPIKARQLATILANEFGQHVDRSTVNSLLYQLRAQGKVAQNAAYQWSLT | -2.01 |
| HMQPEKELAPLIGQRVSVRLHDGDGGYRDLLGELESPDSIRKKNGEIAFFDPAKIAALRVVV | 0.0667 |
| HMQPGDRVDALIVGVSGEHVFLDVGGKSEGVMAAAELRNEAGELSAAEGDRVQVYLLSNRNGELIFTA | 0.205 |
| HMQPHLSADEEHLLKILGSDTMHIDALVKRSTLETSNALAALAFLEMKGLVKNIGNMHYIRTYR | -0.552 |
| HMQPIAVHIGTENPMKSLSDLSVVRAQFTSGGRVIGSVAVLGPTRMQYSRIVGMMRFMQQRLDLLLKG | -0.0629 |
| HMQPKKLNMYYDYVRQLLESHPYLSAAQIEDRLKEEFTELPMVHSKTVFNFVENIRLQHGINKHA | -0.219 |
| HMQPLRQGDFVTSEVVKVQDGTAVLRTAQGTLLSASLTGNLGLLPGDRVETVVVEASPGRFVLRVLDIIR | -0.747 |
| HMQPPLTPRELGVLQWAAEGKTTRDTSAILQIHQRTVEMHLKSAREKLDALNTTHAVARALAHGFILPPS | -0.0091 |
| HMQPPVDGNEIMEIFGIKGSPVIGVIKSTIKNAILDGIIAPNDREAALELMFRIADENGLKPVVTQTQ | -0.0513 |
| HMQPRYMLIKTAILDAIERGEMKPGSQVPSENQLAQQHNVSRMTARRALSEMVDDGILMRSQGIGTFVSD | -0.228 |
| HMQPSFFEMIRMVESYIKQHFENVGNEFPEIARAIYYGIEEERNIYGTASREDMEELLDEGIPILPVP | -0.914 |
| HMQPVEHLPTTDPLTTSAASEHERYEKVRWWLEEMQRTYETGDEVRAERIRLSLIEQMYKWEGE | -0.513 |
| HMQPYTYNPNFLSDYRAYSLGIPLEAYDKLVQFRASGSFVNSMSDFQKITGVSDSLLAVLHSKFRYPK | -0.826 |
| HMQQELEEMESGNLVRTAIDSLPINQRTAFILSAYEELPIKEIASIMNRSEGAVEQLLQRAKMNLKKKIK | 0.233 |
| HMQQLTDRELEVLRLLAAGLSNNKIGEKLYISATTAKFHVSNIMRKLEVSRRAEAVYAASKRGL | -2.26 |
| HMQQLTQRELTLLRLLANGYNNRQIAEQLQLAESTVKNNLSALFQKIGVRDRTQAVLFAISQGLVP | -1.04 |
| HMQQNDMTELRALAEKIISENDSVINDYKSGQGSALQFLIGQAMKETKGSANPQVISEIFTDLL | -0.354 |
| HMQQPIPGEAYLTRRPGSDHFQIAFTIDGHRVRESSGTSDKVAAAALAQKRYEEVWREIKLGEK | -0.0824 |
| HMQQPVAYSEFVQSVNDRQIREAQIQGERIVATDNNGNRMTVIWPENDTKLLDELVQNGVLTSIQE | 0.116 |
| HMQQVDWGSVFGDFGTMFKDQLQPTIDRLRRMAQSDTFRQSSLEEQQILYSLIEKLERSGTA | -1.89 |
| HMQQVIEGLDSDRDFITVPEAIALFAVGRQTLYHYIRSGKIPSVNLGQRLTRLSKKQLGELFPLR | -1.97 |

| Sequence | soluble fraction (log2) |
| --- | --- |
| HMQRGRTFSIVLNWKGRLLSTQMFFPQFTRPTKEQVTFEINKVYPGAMVYYYNPIEKDPSQPLV | -2.26 |
| HMQRLSRREIEVLHWIAEGKSDWQIGQILSISAKTVNYHTENLKRKFGVATRMQAVVSAIKQGAFVPGE | -4.11 |
| HMQRVSDKVAAQLRVLVQEQQLKPGDRLPAERALAVQLGVSRTALREAIAQLASQGLLTARVGGGTYVAEP | -1.08 |
| HMQRYVVDENLKLDKKDINHIINVMRLNVNDQIKLINNGTIYDAIITKIEKNNVLYEIIKKEESK | -0.661 |
| HMQSANQLIKLSRKRKGLTQQELADQAGVSLRTVQRIEKGTEEISGFSLKQISQILEIPLEQLIM | -0.652 |
| HMQSLDGPSRAAIVLMAIGPDVAGELIKSFSPAEAQKVSSLLATVRSLDREVMIEVLDSFKNITEH | -0.339 |
| HMQSLPFSFAKRHGVLLKSINHLHGEAVYRIGANPLSLSEVQRYAGVPLKLSSITVEKFDRLLQETYEHD | -1.17 |
| HMQSLSDQVFFYLKERIINNEMVPGSIISIEKLTSEFGISNTPVREAIVRLAGLDLVTIHRNKNITVS | -2.19 |
| HMQSMSADDWSEKARVLMSAGIIVMGQEAKEKILNLKSLVPLIEAASASNVSMIDSRTFDELLMIIP | -2.46 |
| HMQSREISYSEFVTAVEAGDVRNVTLDGEQVRFRRADGSDYVTIRPEDAEVTKLLMANDIPVRAEP | 0.116 |
| HMQSRRTPASLVERVRQLNGQYQDKEIAELLNREGIKTAHGNEFNAKRIEMIRRHNGISKHSAQ | -0.075 |
| HMQSSTAISFNQFQKSWLSNNIKSFQLGEDKMTVRGSLKNGTQYETIVPSERLFQFIGQHPKDGQVQEMY | 0.0453 |
| HMQSTEQVSVTVTIPPGGELRIDSDTFRVLLNGENVLDKQSGDWLMLSRDLLYLDIESAIGNGLSGNLIYT | 0.486 |
| HMQSVEELLDAIGDERLLHILLEADRKTLQIVVLKMMGYAPKEIGSHIGMPEQTVYTKLRRLREKIKKI | -1.65 |
| HMQSYHVGDKVTIKNSASHWATGQSIYNGVKGHTYKIIQTNGHKLLLDQVISWINDGDVYKAGS | -0.497 |
| HMQSYSTIIGVIELRLSGIGYRTTKARYGIGNSTVTLIMNRFKETGFTLDDLKTMEPTKVEALFYPP | -1.36 |
| HMQSYSYYDFQKALQNKTVESVIIEPDKTVPTGTLQIQLKGDTKEELNVSDVTEVEELLQSYDVDYKLRSV | 0.0732 |
| HMQTASVRFADGQLEVKQKGLQRVSVYSLNGMTVANKAVQGQDYVTISLPRAAYIVKITTQNGSFTKVI | -2.18 |
| HMQTGRREALEAQLRETGGEAMLARLREIDPEAAARLHPADEKRVIRALEVYEETGKTITQHNLETKAVPP | 0.309 |
| HMQTKEVDYGTFMSMIDEKNIGTVEIGDSQIVFTDKDNKNLYETGVMNDPDLAQRLHDAGATFSS | 0.128 |
| HMQTLQTTSLRVSENQLFILDQQALPQEKRWLAADNVALLVDHIHTLRVRGAPLIGLSASLLLALLAGRLT | 0.0717 |
| HMQTMNKTNISNFEKYLNSGDVSEVIVVRNKSSVRVTLTPEALRSSEHQAVVGKNILGQENIKGPHYQFEV | -0.0414 |
| HMQTPPGRYRHYKGGLYEVIATARHSETLEPMTVYRALYGEQGLWVRPAAMFAEDITLEGVRQPRFARI | -2.39 |
| HMQTRIDISDAVLQWVVRKTQFAALPPKAAAHLTKWVRGEKKPTFNQLEEVSKATGIPLGYFFLQQPPHE | -2.19 |
| HMQTTEDMEINAKVDEYLREMYLWNDEYKTLNLDHNKGYEDFFYDALGSMTTNTLDKKTYVGSDGKTYYNL | -0.205 |

Reference: the domain aggregation screens of Martell et al. (2025)
